Measurements published in patent US20260000740A1, “USE OF A L-ASPARAGINASE IN COMBINATION WITH A FERROPTOSIS INDUCER FOR THE TREATMENT OF EXTRANODAL NATURAL KILLER/T-CELL LYMPHOMA” (Institut National de la Santé et de la Recherche Médicale, priority 2022, published 2026).

B1: Erwinase: L-ASP protein from Erwinia chrysanthemi, named crisantaspase, marketed as Erwinase®; SEQ ID NO:1 (protein, listed as Erwinia chrysanthemi)
chain: ADKLPNIVILATGGTIAGSAATGTQTTGYKAGALGVDTLINAVPEVKKLANVKGEQFSNMASENMTGDVVLKLSQRVNELLARDDVDGVVITHGTDTVEESAYFLHLTVKSDKPVVFVAAMRPATAISADGPMNLLEAVRVAGDKQSRGRGVMVVLNDRIGSARYITKTNASTLDTFKANEEGYLGVIIGNRIYYQNRIDKLHTTRSVFDVRGLTSLPKVDILYGYQDDPEYLYDAAIQHGVKGIVYAGMGAGSVSVRGIAGMRKAMEKGVVVIRSTRTGNGIVPPDEELPGLVSDSLNPAHARILLMLALTRTSDPKVIQEYFHTY
B2: Kidrolase: L-Asparaginase from E. Coli (Kidrolase®) (protein, UniProt P00805 23-348, looked up)
L-asparaginase 2: LPNITILATGGTIAGGGDSATKSNYTVGKVGVENLVNAVPQLKDIANVKGEQVVNIGSQDMNDNVWLTLAKKINTDCDKTDGFVITHGTDTMEETAYFLDLTVKCDKPVVMVGAMRPSTSMSADGPFNLYNAVVTAADKASANRGVLVVMNDTVLDGRDVTKTNTTDVATFKSVNYGPLGYIHNGKIDYQRTPARKHTSDTPFDVSKLNELPKVGIVYNYANASDLPAKALVDAGYDGIVSAGVGNGNLYKSVFDTLATAAKTGTAVVRSSRVPTGATTQDAEVDDAKYGFVASGTLNPQKARVLLQLALTQTKDPQQIQQIFNQY

Key:
KHYG-1 cells = assay: Cell viability measurement by flow cytometry (Annexin V/PI); format: cell-based, human; conditions: for Effect of Gln addition on cell death: Gln addition combined to treatment alone; for Asparaginase sensitivity: KHYG1 cell line
Method: KHYG-1 cells were seeded into flat wells of a 96-wells plate (Falcon) at a final concentration of 0.1 10^6 cells/well. APR-246 was dispensed at a final concentration of 20 uM and Asparaginases were dispensed at a final concentration range from 0.1 to 1 UI/mL. Plates were incubated at 37° C. and 5% CO2 for 72 hours in a humidity chamber. Cell viability was determined by flow cytometry using Annexin V (APC Annexin V, BD Biosciences, ref: 550474, 1:100 dilution)/Propidium Iodide (PI) (Propidium Iodide, Invitrogen, ref: BMS500FI-100, 1:20 dilution) staining. After 20 min incubation at 4° C. away from light, flow cytometry was performed using BD Fortessa cytometer (with HTS device for plate reading).
Flow cytometry data were analysed using FlowJo software and GraphPad-Prism 9. R software and Rstudio interface (version 1.4.1106) were used for synergy score calculation. Calculations were based on the Loewe model.

GSH = assay: Quantification of GSH levels and GSH/GSSG ratio in tumor cells (metabolomics, specific quantification); format: cell-based, human; conditions: for GSH / GSH/GSSG ratio: metabolomic analysis in tumor cells after one day treatment, single agent
Source text: (§1) Then, we wanted to uncover the metabolic changes induced by ASNase resistance.

lipid peroxidation = assay: Lipid peroxidation in KHYG1 cell line; format: cell-based, human; conditions: added to RSL3 combined with Erwinase; FIG. 2B
MEC-04 cell line = assay: Asparaginase sensitivity of cell lines; format: cell-based, human
YT1 cell line = assay: Asparaginase sensitivity of cell lines; format: cell-based, human
[1] = tested on: NALM6 human acute lymphoblastic leukemia cell line; assay: Asparaginase sensitivity of cell lines; format: cell-based
mitochondrial ROS = assay: Quantification of mitochondrial ROS levels in tumor cells; format: cell-based, human; conditions: Erwinase compared to Kidrolase; data not shown
Source text: as §1

extracellular Gln = assay: Extracellular glutamine levels in supernatant of cultured cells; format: cell-based, human; conditions: cells cultured with each drug; compared to Kidrolase; data not shown
Source text: Glutamine (Gln) intake from extracellular compartment is converted in Glutamate (Glu) by glutaminase (GLS) and participates to cancer cells protection from oxidative stress through solute carrier family 7-member 11 (SLC7A11) expression. SLC7A11 encodes the cystine/Glu antiporter xCT which imports cysteine into the cell in exchange for Glu […].

Molecule | Effect of Gln addition on cell death (KHYG-1 cells; data not shown) | Effect of co-treatment with ferrostatin-1 on the decrease in cell viability (KHYG-1 cells; RSL3+Erwinase-treated cells, data not shown) | Effect of ferrostatin-1 addition on GSH decrease (GSH; added to RSL3 combined with Erwinase, FIG. 2B) | Effect of ferrostatin-1 addition on lipid peroxidation accumulation (lipid peroxidation) | Asparaginase sensitivity (MEC-04 cell line) | Asparaginase sensitivity (YT1 cell line) | Asparaginase sensitivity [1] | Asparaginase sensitivity (KHYG-1 cells) | GSH levels (GSH; Erwinase compared to Kidrolase, data not shown) | GSH (GSH; data not shown) | GSH/GSSG ratio (GSH; data not shown) | Effect of extracellular Gln addition on intracellular GSH levels (GSH; upon Erwinase treatment, data not shown) | ROS levels (mitochondrial ROS) | Gln extracellular levels in the supernatant (extracellular Gln)
COCC1(CO)C(=O)C2CCN1CC2 (stereo not shown) [APR-246, 2-(hydroxymethyl)-2-(methoxymethyl)-1-azabicyclo[2.2.2]octan-3-one, reference compound] | no effect | – | – | – | – | – | – | – | – | – | – | – | – | –
CCOC(=O)c1ccc(NC2CCCCC2)c(N)c1 [ferrostatin-1, reference compound] | – | abrogated | reversed | reversed | – | – | – | – | – | – | – | – | – | –
B1 | partially prevents cell death | – | – | – | high sensitivity | high sensitivity | resistant | resistant | GSH decrease | more pronounced | more pronounced | significantly rescues | higher ROS levels | deeper extracellular Gln depletion
B2 | no effect | – | – | – | high sensitivity | high sensitivity | resistant | resistant | – | decrease | decrease | – | – | –
